PMC3832671, “Two Homologous EF-G Proteins from Pseudomonas aeruginosa Exhibit Distinct Functions” (PLoS ONE, 2013)

Key:
[1] = tested on: T1, Nc1nc2c(ncn2[C@@H]2O[C@H](COP(=O)(O)OP(=O)(O)OP(=O)(O)O)[C@@H](O)[C@H]2O)c(=O)[nH]1; test: ribosome-dependent GTPase, colorimetric Pi release, Lineweaver-Burk; format: biochemical, Pseudomonas aeruginosa; conditions: P. aeruginosa ribosomes 0.4 μM, EF-G1A 1.0 μM, 10 mM MgCl2, 70 mM NH4Cl, pH 7.5, kcat is kcat^obs
T1 construct: full length (706 residues) with N-terminal 6xHis tag from pET-28b(+), NheI/HindIII; expressed in E. coli Rosetta 2(DE3); about 77 kDa
Text: ribosome-dependent GTPase, colorimetric Pi release, Lineweaver-Burk on EF-G1A

[2] = tested on: T2, Nc1nc2c(ncn2[C@@H]2O[C@H](COP(=O)(O)OP(=O)(O)OP(=O)(O)O)[C@@H](O)[C@H]2O)c(=O)[nH]1; test: as above; format: biochemical, Pseudomonas aeruginosa; conditions: P. aeruginosa ribosomes 0.4 μM, EF-G1B 0.3 μM, 10 mM MgCl2, 70 mM NH4Cl, pH 7.5, 37 °C, kcat is kcat^obs, text b30 prints 71 μM
T2 construct: full length (702 residues) with N-terminal 6xHis tag from pET-28b(+), NheI/HindIII; expressed in E. coli Rosetta 2(DE3); about 77 kDa
Text: ribosome-dependent GTPase, colorimetric Pi release, Lineweaver-Burk on EF-G1B

Substance	Km [1]	kcat [1]	kcat/Km [1]	Km [2]	kcat [2]	kcat/Km [2]
EF-G1A (Pseudomonas aeruginosa PAO1)	85 µM	0.04 s⁻¹	500 M⁻¹ s⁻¹			
EF-G1B (Pseudomonas aeruginosa PAO1)				70 µM	0.2 s⁻¹	3000 M⁻¹ s⁻¹
